Target: T1, Human PD-L1 (human, UniProt Q9NZQ7 19-290)
T1 construct: whole, on cells; also called target-A
Test: flow cytometry on CHO-K1 cells expressing human PD-L1
Procedure: Human PD-L1-expressing cells W315-CHOK1.hPro1.C11 (×10^5 cells/well) and 4-1BB-expressing cells WBP342-CHO-K1.hPro1.C1 were incubated with various concentrations of testing antibodies at 4° C. for 1 hour. […] The cells were then washed and resuspended in DPBS with 1% BSA. MFI of the cells was measured by a flow cytometer and analyzed by FlowJo.
As shown in FIG. 7 and Table 7, compared to the reference molecule, the T8311 variants kept the target binding ability very well.

T1 sequence (Q9NZQ7 19-290): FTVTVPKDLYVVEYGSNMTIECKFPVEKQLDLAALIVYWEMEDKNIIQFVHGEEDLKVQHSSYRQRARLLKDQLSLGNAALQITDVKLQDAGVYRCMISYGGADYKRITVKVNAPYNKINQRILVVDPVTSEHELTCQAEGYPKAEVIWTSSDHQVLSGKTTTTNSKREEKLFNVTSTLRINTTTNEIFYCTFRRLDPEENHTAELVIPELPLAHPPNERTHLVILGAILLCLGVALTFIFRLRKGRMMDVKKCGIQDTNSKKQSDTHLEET

B1: T8311-U14T2.G25R-54.uIgG1 (bispecific antibody)
heavy: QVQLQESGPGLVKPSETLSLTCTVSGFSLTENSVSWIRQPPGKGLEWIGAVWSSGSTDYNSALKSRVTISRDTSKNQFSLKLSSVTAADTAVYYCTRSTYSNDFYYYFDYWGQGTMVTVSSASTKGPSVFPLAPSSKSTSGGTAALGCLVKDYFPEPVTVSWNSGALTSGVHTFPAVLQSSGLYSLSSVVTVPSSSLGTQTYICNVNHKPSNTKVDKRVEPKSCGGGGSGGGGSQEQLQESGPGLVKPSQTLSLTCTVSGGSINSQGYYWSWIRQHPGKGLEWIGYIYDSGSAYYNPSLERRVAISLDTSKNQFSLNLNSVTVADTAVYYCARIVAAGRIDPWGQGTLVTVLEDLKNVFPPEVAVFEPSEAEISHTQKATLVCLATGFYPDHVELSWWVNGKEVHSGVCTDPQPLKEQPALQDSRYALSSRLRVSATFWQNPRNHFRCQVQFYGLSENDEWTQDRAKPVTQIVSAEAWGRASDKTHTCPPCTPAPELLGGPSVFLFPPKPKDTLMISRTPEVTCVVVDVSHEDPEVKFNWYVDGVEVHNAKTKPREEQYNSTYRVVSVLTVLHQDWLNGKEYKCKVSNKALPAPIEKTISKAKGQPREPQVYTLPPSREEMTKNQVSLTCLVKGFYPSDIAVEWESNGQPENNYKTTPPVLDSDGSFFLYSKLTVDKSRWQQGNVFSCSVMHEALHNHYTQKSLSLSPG
light 1: SYELTQPPSVSVSPGQTASITCSGSELPKRYAYWYQQKPGQSIVRVIYKDSERPSGISERFSGSSSGNTATLTISGTQAMDEADYYCSSTYGDRKLPIFGGGTKLTVLGQPKAAPSVTLFPPSSEELQANKATLVCLISDFYPGAVTVAWKADSSPVKAGVETTTPSKQSNNKYAASSYLSLTPEQWKSHKSYSCQVTHEGSTVEKTVAPTECS
light 2: SYVLTQPPSVSVAPGQTARMTCGGDNIGIKIVHWYQQKAGQAPVLVVYDDNDRPSGIPDRFSGSNSGNTATLTISRVAAGDEADYYCQVWDRRSDHVVFGGGTKLTVLPDIQNPDCAVYQLRDSKSSDKSVCLFTDFDSQTQVSQSKDSDVYITDKCVLDMRSMDFKSNSAVAWSQKSDFACANAFQNSIICEDTFFPS
notes: also called T8311-54
  EC50: 0.23 nM
  Top (MFI): 8120 MFI

— patent US20240317872A1 (WUXI BIOLOGICS IRELAND, published 2024)
